B1: Actin nucleation-promoting factor WAS (Homo sapiens), P42768 (parent)
chain: MSGGPMGGRPGGRGAPAVQQNIPSTLLQDHENQRLFEMLGRKCLTLATAVVQLYLALPPGAEHWTKEHCGAVCFVKDNPQKSYFIRLYGLQAGRLLWEQELYSQLVYSTPTPFFHTFAGDDCQAGLNFADEDEAQAFRALVQEKIQKRNQRQSGDRRQLPPPPTPANEERRGGLPPLPLHPGGDQGGPPVGPLSLGLATVDIQNPDITSSRYRGLPAPGPSPADKKRSGKKKISKADIGAPSGFKHVSHVGWDPQNGFDVNNLDPDLRSLFSRAGISEAQLTDAETSKLIYDFIEDQGGLEAVRQEMRRQEPLPPPPPPSRGGNQLPRPPIVGGNKGRSGPLPPVPLGIAPPPPTPRGPPPPGRGGPPPPPPPATGRSGPLPPPPPGAGGPPMPPPPPPPPPPPSSGNGPAPPPLPPALVPAGGLAPGGGRGALLDQIRQGIQLNKTPGAPESSALQPPPQSSEGLVGALMHVMQKRSRAIHSSDEGEDQAGDEDEDDEWDD

Variants of: B1
Details: with wipf1_human WIPF1, O43516
wipf1_human WIPF1, O43516, sequence (O43516 whole entry): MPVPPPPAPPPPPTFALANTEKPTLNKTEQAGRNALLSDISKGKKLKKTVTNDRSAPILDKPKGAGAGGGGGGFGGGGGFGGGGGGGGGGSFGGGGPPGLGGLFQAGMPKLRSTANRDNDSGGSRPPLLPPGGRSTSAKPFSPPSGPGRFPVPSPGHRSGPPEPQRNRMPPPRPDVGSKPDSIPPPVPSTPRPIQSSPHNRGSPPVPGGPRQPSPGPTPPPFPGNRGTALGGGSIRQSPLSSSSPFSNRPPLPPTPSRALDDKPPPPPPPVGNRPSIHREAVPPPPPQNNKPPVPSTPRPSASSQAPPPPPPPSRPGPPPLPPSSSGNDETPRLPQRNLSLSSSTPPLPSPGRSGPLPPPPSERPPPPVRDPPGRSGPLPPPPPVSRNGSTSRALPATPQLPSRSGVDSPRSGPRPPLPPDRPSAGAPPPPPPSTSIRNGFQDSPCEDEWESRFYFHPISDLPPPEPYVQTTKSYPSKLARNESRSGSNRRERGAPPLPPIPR

Variant	effect of a mutation on the interaction
A134T	decreasing interaction
